Molecular target: T1, His‐Halo‐tagged Met1‐linked ubiquitin tetramer (human, UniProt P0CG48 1-76; P0CG48 1-76; P0CG48 1-76; P0CG48 1-76)
T1 construct: ubiquitin (76-residue mature product of the polyubiquitin precursor), repeat 1 of 4, joined head to tail through Met1; ubiquitin (76-residue mature product), repeat 2 of 4; ubiquitin (76-residue mature product), repeat 3 of 4; ubiquitin (76-residue mature product), repeat 4 of 4; Tag end read from the printed name Halo‐M1‐Ub4; Covalently coupled to HaloLink resin through the Halo tag; also called …
Test: pull-down; Halo‐tagged M1‐linked tetraubiquitin covalently coupled to HaloLink resin; 10 μl beads with 2 μg bacterially expressed HOIL‐1 protein in 0.5 ml PBS pH 7.4, 0.001% NP‐40, 1 mM TCEP, 0.01 mg/ml BSA, 3.5 h at 4°C; bound protein detected by Coomassie staining
Details: both partners purified

T1 sequence (P0CG48 1-304, one chain of several): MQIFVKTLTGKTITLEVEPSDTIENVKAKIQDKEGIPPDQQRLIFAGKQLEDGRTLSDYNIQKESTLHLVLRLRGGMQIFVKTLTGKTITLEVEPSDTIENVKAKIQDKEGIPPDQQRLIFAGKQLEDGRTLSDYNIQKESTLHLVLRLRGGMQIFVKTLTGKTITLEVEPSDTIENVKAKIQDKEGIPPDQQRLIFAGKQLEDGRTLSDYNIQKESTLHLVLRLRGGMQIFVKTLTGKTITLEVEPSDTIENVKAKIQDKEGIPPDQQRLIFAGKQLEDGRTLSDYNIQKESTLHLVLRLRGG

B1: HOIL‐1 (haem‐oxidised IRP2 ubiquitin ligase‐1), full‐length untagged human, wild type (enzyme, UniProt Q9BYM8 1-510, looked up)
chain: MDEKTKKAEEMALSLTRAVAGGDEQVAMKCAIWLAEQRVPLSVQLKPEVSPTQDIRLWVSVEDAQMHTVTIWLTVRPDMTVASLKDMVFLDYGFPPVLQQWVIGQRLARDQETLHSHGVRQNGDSAYLYLLSARNTSLNPQELQRERQLRMLEDLGFKDLTLQPRGPLEPGPPKPGVPQEPGRGQPDAVPEPPPVGWQCPGCTFINKPTRPGCEMCCRARPEAYQVPASYQPDEEERARLAGEEEALRQYQQRKQQQQEGNYLQHVQLDQRSLVLNTEPAECPVCYSVLAPGEAVVLRECLHTFCRECLQGTIRNSQEAEVSCPFIDNTYSCSGKLLEREIKALLTPEDYQRFLDLGISIAENRSAFSYHCKTPDCKGWCFFEDDVNEFTCPVCFHVNCLLCKAIHEQMNCKEYQEDLALRAQNDVAARQTTEMLKVMLQQGEAMRCPQCQIVVQKKDGCDWIRCTVCHTEICWVTKGPRWGPGGPGDTSGGCRCRVNGIPCHPSCQNCH
notes: HOIL‐1 (RBCK1), human, full length (residues 1-510 by the printed construct limits); Tag end read from the printed name His6‐SUMO‐HOIL‐1; also called RBCK1; wild‐type HOIL‐1; source: E. coli BL21 (DE3), purified (tag removed with Ulp1; size exclusion chromatography or dialysis); not shown: His6, N-terminal, cleaved; SUMO, N-terminal, cleaved
**Q.** Does B1 bind?
**A.** Result: binds
